In test [1] the target is importin α5 (79-538) in the ITC cell (human) (UniProt P52294). In words: ITC.
The target is the same in test [2]. In words: ITC. This is another data set of the same source. On the technique in general: ITC needs no label: the signal is the heat of the interaction.

Like-named read-outs stand apart in the source and are kept apart here. Square brackets hold non-standard residues; d marks the D form. Ends that are not written are not given here. pS = N[C@@H](COP(=O)(O)O)C(=O)O

A word on the Kd: it is the constant that tells how readily two partners part at equilibrium. High values mean lower affinity, low ones higher affinity.

Molecule KRPRSP[pS]S [phosphorylated EBNA-1 NLS peptide (379-KRPRSPpSS-386)] had a dH in test [1] of 6.95 kcal/mol.
KRPRSPSS (not fully specified) [unphosphorylated EBNA-1 NLS peptide (379-KRPRSPSS-386)]: the Kd was found to be 60 µM in test [2] and 30 µM in test [1]. Also, the dH in test [1] amounted to 6.55 kcal/mol.

(Values after article PMC2930068.)
